Measured values published in article PMC4552487.

Target: Parkin 80-465 (UniProt O60260)
Experiment: AlphaScreen, competition with GST-Ubl (1-76)
Details: reference: unphosphorylated Ubl (1-76); sites S65

## Parkin Ubl domain, 1-76 (from UniProt O60260) Ubl (1-76) phosphorylated by TcPINK1, Mono-Q purified
  binding against the reference: weaker
